B1: anti-cMet 11E1 monoclonal antibody (hybridoma CNCM I-3724) (antibody, V domains shown)
VH: QVQLQQSGAELAKPGASVKMSCKASGYTFTSYWMNWVKQRPGQGLEWIGYINPTTGSTDYNQKLKDKATLTADKSSNTAYMQLSSLTSEDSAVYYCAIGGYGSWFAYWGQGTLVTVSA
VL: QIVLTQSPAIMSASPGEKVTLTCSASSSVSSTYLYWYQQKPGSSPKLWIYTTSILASGVPARFSGSGSGTSYSLTISSMETEDAASYFCHQWSSYPFTFGSGTKLDIK
notes: summary and claims call them variable heavy and variable light domains; Hybridoma monoclonal, coated on magnetic microparticles (capture) or labelled with acridinium (conjugate); also called m11E1; mAb 11E1
B2: anti-cMet 224D10 F(ab')2 fragment antibody (antibody, V domains shown)
VH: DLQLQESGPGLVKPSQSLSLTCSVTGYSITSAYFWSWIRQFPGNKLEWMGFINYDGTNNYNPSLKNRISITRDTSKNQFFLRLNSVTTDDTATYYCTRDRTFAYWGQGTLVTVSA
VL: DIVLTQSPATLSVTPGDRVSLSCRASQRIYNYLHWYQQKSHESPRLLIKYASQSISGIPSRFSGSGSGTDFILTINSVETEDFGMYFCQQSNSWPLTFGAGTKLELRR
modifications: acridinium conjugate (site not stated)
notes: also called 224D10 F(ab') 2 fragment conjugate

Columns and labels:
[1] = target: T1, recombinant human scMet antigen, cMet (25-932)-HIEGRMD-6His (human, UniProt P08581 25-932); experiment: … chemiluminescent microparticle sandwich immunoassay on recombinant scMet
T1 construct: this entry is used for those rows too; also called soluble cMet; scMet B Sample
T1 sequence (P08581 other isoform, or with tags, fused parts or gaps limits assumed): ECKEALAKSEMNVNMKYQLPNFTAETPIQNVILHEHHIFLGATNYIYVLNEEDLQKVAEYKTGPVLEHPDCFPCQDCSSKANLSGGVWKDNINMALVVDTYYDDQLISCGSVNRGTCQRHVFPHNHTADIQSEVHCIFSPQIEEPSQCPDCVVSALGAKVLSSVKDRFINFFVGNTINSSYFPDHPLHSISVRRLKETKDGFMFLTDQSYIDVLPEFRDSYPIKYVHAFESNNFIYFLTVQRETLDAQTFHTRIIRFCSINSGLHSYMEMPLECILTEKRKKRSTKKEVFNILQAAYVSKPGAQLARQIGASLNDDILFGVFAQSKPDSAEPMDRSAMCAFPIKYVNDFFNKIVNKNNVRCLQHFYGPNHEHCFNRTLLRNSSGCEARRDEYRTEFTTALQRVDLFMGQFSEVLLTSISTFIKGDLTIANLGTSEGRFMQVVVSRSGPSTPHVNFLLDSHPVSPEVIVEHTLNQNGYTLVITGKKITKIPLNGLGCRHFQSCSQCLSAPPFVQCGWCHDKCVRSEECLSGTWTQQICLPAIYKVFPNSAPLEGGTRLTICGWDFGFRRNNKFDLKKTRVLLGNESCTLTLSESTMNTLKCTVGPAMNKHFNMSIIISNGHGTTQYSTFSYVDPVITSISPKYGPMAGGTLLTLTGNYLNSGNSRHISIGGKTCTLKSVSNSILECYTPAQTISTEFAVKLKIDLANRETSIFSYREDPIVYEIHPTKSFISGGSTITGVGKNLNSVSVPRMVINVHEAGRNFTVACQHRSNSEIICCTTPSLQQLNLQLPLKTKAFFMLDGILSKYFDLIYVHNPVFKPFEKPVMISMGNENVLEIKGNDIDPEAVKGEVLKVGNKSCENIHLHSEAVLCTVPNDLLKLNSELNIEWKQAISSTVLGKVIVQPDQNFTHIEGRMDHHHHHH

[2] = target: T2, free cMet (SEQ ID NO: 33) bound to Alexa-488 dye (human, UniProt P08581 25-932, Alexa-488 dye (site not stated)); experiment: FRET binding titration in solution
T2 construct: also called cMet-A488
T2 sequence (P08581 other isoform, or with tags, fused parts or gaps limits assumed): as above

[3] = target: T1, recombinant human scMet antigen, cMet …; experiment: … scMet B sandwich immunoassay, 224D10 F(ab')2 as acridinium conjugate

Row | Binder | binding result [1] | binding result [2] | binding result [3]
1 | B1 | binds | binds | 
2 | B2 |  |  | binds

— WO2015031626A1 (dated 2015)
